First the molecules themselves.
B6: human VEGFR-2/Fc (R&D Systems) (Fc fusion)
chain: ASVGLPSVSLDLPRLSIQKDILTIKANTTLQITCRGQRDLDWLWPNNQSGSEQRVEVTECSDGLFCKTLTIPKVIGNDTGAYKCFYRETDLASVIYVYVQDYRSPFIASVSDQHGVVYITENKNKTVVIPCLGSISNLNVSLCARYPEKRFVPDGNRISWDSKKGFTIPSYMISYAGMVFCEAKINDESYQSIMYIVVVVGYRIYDVVLSPSHGIELSVGEKLVLNCTARTELNVGIDFNWEYPSSKHQHKKLVNRDLKTQSGSEMKKFLSTLTIDGVTRSDQGLYTCAASSGLMTKKNSTFVRVHEKPFVAFGSGMESLVEATVGERVRIPAKYLGYPPPEIKWYKNGIPLESNHTIKAGHVLTIMEVSERDTGNYTVILTNPISKEKQSHVVSLVVYVPPQIGEKSLISPVDSYQYGTTQTLTCTVYAIPPPHHIHWYWQLEEECANEPSQAVSVTNPYPCEEWRSVEDFQGGNKIEVNKNQFALIEGKNKTVSTLVIQAANVSALYKCEAVNKVGRGERVISFHVTRGPEITLQPDMQPTEQESVSLWCTADRSTFENLTWYKLGPQPLPIHVGELPTPVCKNLDTLWKLNATMFSNSTNDILIMELKNASLQDQGDYVCLAQDRKTKKRHCVVRQLTVLERVAPTITGNLENQTTSIGESIEVSCTASGNPPPQIMWFKDNETLVEDSGIVLKDGNRNLTIRRVRKEDEGLYTCQACSVLGCAKVEAFFIIEGAQEKTNLE
notes: Bought protein; also called recombinant VEGFR2/Fc; not shown: Fc part; It is captured by goat anti-human IgG-Fc in the ELISA

Assay [1] concerns the target B6. Kind of assay: ELISA, captured recombinant VEGFR2/Fc, biotin-V21H4 (FIG. 13A); antibody alone, not conjugate. (In general: In an ELISA, binding on a coated surface is turned into a signal by an enzyme label.)
The target of assay [2] is T1, human VEGFR2 (KDR) expressed on 293/KDR cells (human, UniProt P35968 20-1356). Put plainly: flow cytometry on 293/KDR cells (FIG. 13B).
Assay [3] deals with T1, human VEGFR2 (KDR) expressed on 293/KDR …. Kind of assay: flow cytometry on 293/KDR cells, S/N against biotin-isotype control. (In flow cytometry, cells or beads pass a laser one at a time.)
Assay [4] addresses B6. Put plainly: ELISA on recombinant VEGFR2/Fc, absorbance at 405 nm.
For assay [5], the target named is T2, mouse VEGFR-2/Fc (R&D Systems) (mouse, UniProt P35918 20-762).
T2 construct: Bought protein; also called immobilized mouse VEGFR-2/Fc; not shown: Fc part, not described
T2 sequence (P35918 20-762 limits assumed): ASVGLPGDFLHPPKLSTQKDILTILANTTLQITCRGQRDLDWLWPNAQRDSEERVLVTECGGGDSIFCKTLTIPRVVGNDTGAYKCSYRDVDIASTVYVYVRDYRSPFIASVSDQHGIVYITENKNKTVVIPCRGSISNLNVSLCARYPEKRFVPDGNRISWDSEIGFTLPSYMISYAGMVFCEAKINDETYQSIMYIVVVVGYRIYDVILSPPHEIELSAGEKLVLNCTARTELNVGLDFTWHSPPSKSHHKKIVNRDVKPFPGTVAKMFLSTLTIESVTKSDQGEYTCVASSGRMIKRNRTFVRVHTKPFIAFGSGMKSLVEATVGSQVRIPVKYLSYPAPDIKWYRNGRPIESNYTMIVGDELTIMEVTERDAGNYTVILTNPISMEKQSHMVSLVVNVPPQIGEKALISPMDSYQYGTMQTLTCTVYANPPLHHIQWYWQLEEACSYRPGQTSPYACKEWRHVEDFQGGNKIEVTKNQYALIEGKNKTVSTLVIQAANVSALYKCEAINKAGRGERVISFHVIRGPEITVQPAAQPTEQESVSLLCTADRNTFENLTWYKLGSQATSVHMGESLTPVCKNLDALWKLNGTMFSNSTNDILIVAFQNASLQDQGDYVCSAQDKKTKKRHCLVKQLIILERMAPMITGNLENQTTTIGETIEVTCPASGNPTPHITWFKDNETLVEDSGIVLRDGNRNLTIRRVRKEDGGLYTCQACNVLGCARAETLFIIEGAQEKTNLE
Put plainly: SPR (Biacore 3000), immobilized mouse VEGFR-2/Fc. (In general: SPR reads the build-up and loss of mass on a sensor chip optically.)

The target in assay [6] is B6. Kind of assay: SPR (Biacore 3000), immobilized human VEGFR-2/Fc; estimated from transformed data (FIG. 3).
Assay [7] has as its target B6. Kind of assay: SPR (Biacore 3000), immobilized human VEGFR-2/Fc.
For assay [8], the target named is T3, AB1-(SEQ ID NO:9) DOS47 antibody-urease conjugate (jack bean (Canavalia ensiformis), UniProt P07374 1-840, cross-linked to the antibody; sites not stated; chemically cross-linked to urease; cross-linker and sites not stated for this conjugate).
T3 construct: Antibody-enzyme conjugate; also called AB1-DOS47
T3 sequence (VHH, as listed by the source limits assumed, chain 1 of 2): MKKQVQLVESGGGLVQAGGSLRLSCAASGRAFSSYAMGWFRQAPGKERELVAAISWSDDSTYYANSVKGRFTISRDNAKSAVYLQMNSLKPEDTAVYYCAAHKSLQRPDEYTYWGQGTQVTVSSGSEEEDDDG
T3 sequence (P07374 whole entry, chain 2 of 2): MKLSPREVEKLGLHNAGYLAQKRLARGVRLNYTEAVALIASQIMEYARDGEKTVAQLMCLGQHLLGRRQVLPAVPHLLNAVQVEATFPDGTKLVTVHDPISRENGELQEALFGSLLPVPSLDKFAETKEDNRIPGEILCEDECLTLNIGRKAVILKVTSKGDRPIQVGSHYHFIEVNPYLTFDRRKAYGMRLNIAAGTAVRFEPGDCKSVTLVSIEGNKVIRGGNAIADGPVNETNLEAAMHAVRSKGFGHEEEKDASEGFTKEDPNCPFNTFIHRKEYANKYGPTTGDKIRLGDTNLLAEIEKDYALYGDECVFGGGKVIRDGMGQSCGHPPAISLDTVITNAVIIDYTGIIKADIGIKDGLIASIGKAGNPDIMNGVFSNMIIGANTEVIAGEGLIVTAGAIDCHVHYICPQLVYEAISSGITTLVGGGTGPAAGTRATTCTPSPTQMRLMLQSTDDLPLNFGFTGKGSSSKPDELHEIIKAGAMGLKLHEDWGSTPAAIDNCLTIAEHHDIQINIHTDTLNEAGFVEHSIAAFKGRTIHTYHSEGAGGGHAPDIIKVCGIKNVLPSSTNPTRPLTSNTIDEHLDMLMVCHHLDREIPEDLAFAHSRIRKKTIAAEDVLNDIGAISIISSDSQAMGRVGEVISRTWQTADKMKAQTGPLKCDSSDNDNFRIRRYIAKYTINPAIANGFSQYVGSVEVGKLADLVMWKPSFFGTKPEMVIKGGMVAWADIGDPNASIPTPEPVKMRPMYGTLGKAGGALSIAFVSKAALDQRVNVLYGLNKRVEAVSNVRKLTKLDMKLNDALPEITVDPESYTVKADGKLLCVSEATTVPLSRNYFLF
Put plainly: ELISA on VEGFR2/Fc captured by anti-human IgG-Fc, conjugate detected with anti-urease [panel AB1-DOS47].

The target of assay [9] is T4, AB4-(SEQ ID NO:27) DOS47 antibody-urease conjugate (jack bean (Canavalia ensiformis), UniProt P07374 1-840, cross-linked to the antibody; sites not stated; chemically cross-linked to urease; cross-linker and sites not stated for this conjugate).
T4 construct: Antibody-enzyme conjugate; also called AB4-DOS47
T4 sequence (VHH, as listed by the source limits assumed, chain 1 of 2): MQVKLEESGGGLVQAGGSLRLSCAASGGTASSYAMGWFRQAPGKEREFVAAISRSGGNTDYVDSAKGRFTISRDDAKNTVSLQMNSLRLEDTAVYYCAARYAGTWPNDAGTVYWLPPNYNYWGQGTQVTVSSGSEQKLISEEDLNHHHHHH
T4 sequence (P07374 whole entry, chain 2 of 2): as the sequence (P07374 whole entry, chain 2 of 2) above
Kind of assay: ELISA on VEGFR2/Fc captured by anti-human IgG-Fc, conjugate detected with anti-urease [panel AB4-DOS47].

In assay [10] the target is T5, AB2-(SEQ ID NO:13) DOS47 antibody-urease conjugate (jack bean (Canavalia ensiformis), UniProt P07374 1-840, cross-linked to the antibody; sites not stated; chemically cross-linked to urease; cross-linker and sites not stated for this conjugate).
T5 construct: Antibody-enzyme conjugate; also called AB2-DOS47
T5 sequence (VH, as listed by the source limits assumed, chain 1 of 2): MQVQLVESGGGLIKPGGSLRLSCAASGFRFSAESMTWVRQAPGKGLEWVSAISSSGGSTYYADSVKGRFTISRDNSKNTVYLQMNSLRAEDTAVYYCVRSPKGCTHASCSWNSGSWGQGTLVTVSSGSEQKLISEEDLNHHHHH
T5 sequence (P07374 whole entry, chain 2 of 2): as the sequence (P07374 whole entry, chain 2 of 2) above
Kind of assay: ELISA on VEGFR2/Fc captured by anti-human IgG-Fc, conjugate detected with anti-urease [panel AB2-DOS47].

For assay [11], the target named is T6, V21H4-DOS47 with 1.4 antibodies per urease (jack bean (Canavalia ensiformis), UniProt P07374 1-840, surface cysteines partly linked through BM(PEG)2 to C136 of V21H4; C136 linked through BM(PEG)2 to a urease cysteine).
T6 construct: The conjugation ratio is an average value from SDS-PAGE
T6 sequence (VHH, as listed by the source limits assumed, chain 1 of 2): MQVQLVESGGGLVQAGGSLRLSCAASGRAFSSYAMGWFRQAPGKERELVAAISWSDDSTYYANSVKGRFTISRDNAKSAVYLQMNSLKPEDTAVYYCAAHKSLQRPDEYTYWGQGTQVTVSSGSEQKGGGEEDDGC
T6 sequence (P07374 whole entry, chain 2 of 2): as the sequence (P07374 whole entry, chain 2 of 2) above
Put plainly: ELISA on recombinant VEGFR2/Fc, absorbance at 405 nm, V21H4-DOS47 at different antibody/urease ratios.

Assay [12] deals with T7, V21H4-DOS47 with 3.3 antibodies per urease (jack bean (Canavalia ensiformis), UniProt P07374 1-840, surface cysteines partly linked through BM(PEG)2 to C136 of V21H4; C136 linked through BM(PEG)2 to a urease cysteine).
T7 construct: The conjugation ratio is an average value from SDS-PAGE
T7 sequence (P07374 whole entry, chain 2 of 2): as above
The assay is described as above.

Assay [13] concerns the target T8, V21H4-DOS47 with 2.3 antibodies per urease (jack bean (Canavalia ensiformis), UniProt P07374 1-840, surface cysteines partly linked through BM(PEG)2 to C136 of V21H4; C136 linked through BM(PEG)2 to a urease cysteine).
T8 construct: The conjugation ratio is an average value from SDS-PAGE
Described as above.

Assay [14] deals with T9, V21H4-DOS47 with 9.4 antibodies per urease (jack bean (Canavalia ensiformis), UniProt P07374 1-840, surface cysteines partly linked through BM(PEG)2 to C136 of V21H4; C136 linked through BM(PEG)2 to a urease cysteine).
T9 construct: The conjugation ratio is an average value from SDS-PAGE
T9 sequence (P07374 whole entry, chain 2 of 2): as above
The assay is described as above.

Assay [15] deals with V21H4-DOS47 (V21H4, SEQ ID NO:6, conjugated to jack bean urease through BM(PEG)2) (jack bean (Canavalia ensiformis), UniProt P07374 1-840, C824, C663, C59 and C207 partly linked through BM(PEG)2 to C136 of V21H4; C136 linked through BM(PEG)2 to a urease cysteine). Kind of assay: ELISA on recombinant VEGFR2/Fc, absorbance at 405 nm.
Chain of V21H4-DOS47 (V21H4, SEQ ID NO:6, conjugated to jack bean urease through BM(PEG)2) (P07374 whole entry, chain 2 of 2): as above
The target of assay [16] is V21H1-DOS47 (V21H1, SEQ ID NO:3, conjugated to jack bean urease through SM(PEG)2) (jack bean (Canavalia ensiformis), UniProt P07374 1-840, surface cysteines linked through SM(PEG)2 to the antibody; primary amines linked through SM(PEG)2 to urease cysteines; K66 in CDR2 was about 25% of the activated antibody). The assay is described as above.
Chain of V21H1-DOS47 (V21H1, SEQ ID NO:3, conjugated to jack bean urease through SM(PEG)2) (VHH, as listed by the source limits assumed, chain 1 of 2): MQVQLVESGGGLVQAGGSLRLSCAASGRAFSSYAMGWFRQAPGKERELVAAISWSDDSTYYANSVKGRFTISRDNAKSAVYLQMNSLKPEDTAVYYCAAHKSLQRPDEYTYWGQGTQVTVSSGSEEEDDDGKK
Chain of V21H1-DOS47 (V21H1, SEQ ID NO:3, conjugated to jack bean urease through SM(PEG)2) (P07374 whole entry, chain 2 of 2): as the sequence (P07374 whole entry, chain 2 of 2) above

Where only a bound is given, the exact number is not on record here.

T8 sequence (P07374 whole entry, chain 2 of 2): as above

B1: biotin-V21H4 (SEQ ID NO:6) (VHH)
VHH: QVQLVESGGGLVQAGGSLRLSCAASGRAFSSYAMGWFRQAPGKERELVAAISWSDDSTYYANSVKGRFTISRDNAKSAVYLQMNSLKPEDTAVYYCAAHKSLQRPDEYTYWGQGTQVTVSS
modifications: biotinylated (site not stated)
notes: The biotinylation method is not described; also called V21H4 antibody
Broadly, the EC50 is the concentration at which the effect is half-maximal. The EC50 (read off the curve) is the concentration that produces a half-maximal response. On to B1, for which the EC50 turned out to be 1.8 nM in assay [1] and 1.6 nM in assay [2]. In addition, the half-maximal effective concentration (EC50 (read off the curve)) in assay [3] and in assay [4] was roughly 2 nM each time.

B2: AB1 with linker 2 (SEQ ID NO:7) (VHH)
VHH: QVQLVESGGGLVQAGGSLRLSCAASGRAFSSYAMGWFRQAPGKERELVAAISWSDDSTYYANSVKGRFTISRDNAKSAVYLQMNSLKPEDTAVYYCAAHKSLQRPDEYTYWGQGTQVTVSS
notes: Llama single domain antibody expressed in E. coli BL21(DE3); The monomer fraction from Superdex 75 was used for SPR; also called VR2-21
Broadly, the Kd is the free concentration of one partner at which half of the binding sites on the other are occupied at equilibrium, for simple one-to-one binding. Usually koff stands for a measure of how fast the partners let go of each other. The term kon denotes a measure of how fast the partners come together. With B2, the binding result in [5] is listed as “no binding (tested: 150˜200 nM)”. In assay [6], the Kd was roughly 80 nM, the koff was less than 0.01 s⁻¹ and the association rate constant (kon) is roughly 60000 M⁻¹ s⁻¹.

B3: AB3 with linker 2 (SEQ ID NO:21) (antibody, V domains shown)
VH: QVQLVESGGGLIKPGGSLRLSCAASGDMLSYDVMSWVRQAPGKGLEWVSAISSSGGSTYYADSVKGRFTISRDNSKNTVYLQMNSLRAEDTAVYYCVAAPWRCTHDNCSKTRASWGQGTMVTVSS
notes: Single domain antibody on a human VH scaffold, expressed in E. coli; also called VR2-801-45
Take B3: in assay [5], the binding result is listed as “no binding (tested: 150˜200 nM)”. For the same molecule, in [7], the Kd stood at 900 nM, the koff amounted to 0.045 s⁻¹ and the on-rate constant (kon) stood at 53000 M⁻¹ s⁻¹.

B4: AB4 with linker 2 (SEQ ID NO:27) (VHH)
VHH: QVKLEESGGGLVQAGGSLRLSCAASGGTASSYAMGWFRQAPGKEREFVAAISRSGGNTDYVDSAKGRFTISRDDAKNTVSLQMNSLRLEDTAVYYCAARYAGTWPNDAGTVYWLPPNYNYWGQGTQVTVSS
notes: Llama single domain antibody expressed in E. coli; also called VR2-38
Take B4: the binding result in assay [5] is “no binding (tested: 150˜200 nM)”. In assay [7], the equilibrium dissociation constant (Kd) came out at 80 nM.

B5: AB2 with linker 2 (SEQ ID NO:13) (antibody, V domains shown)
VH: QVQLVESGGGLIKPGGSLRLSCAASGFRFSAESMTWVRQAPGKGLEWVSAISSSGGSTYYADSVKGRFTISRDNSKNTVYLQMNSLRAEDTAVYYCVRSPKGCTHASCSWNSGSWGQGTLVTVSS
notes: Single domain antibody on a human VH scaffold, from a human VH library, expressed in E. coli; also called VR2-801-18
For B5, the binding result in assay [5] was “no binding (tested: 150˜200 nM)”. Moreover, in assay [7], binding was put at a Kd of 500 nM, the koff turned out to be 0.02 s⁻¹ and the on-rate (kon) was 46000 M⁻¹ s⁻¹.

As for B6, the binding result in assay [8], in assay [9], in assay [10], in assay [11], in assay [12] and in assay [13] was “binds” each time. Further, the binding result in [14], in assay [15] and in assay [16] was “binds” throughout.

These data come from patent publication US20180243437A1 (published 2018).
